Measurements published in patent US20100261178A1.

How the values were obtained:
[1] = target: human adiponectin receptor AdipoR2 (human) (UniProt Q86V24)
[2] = target: human adiponectin receptor AdipoR1 (human) (UniProt Q96A54)

## adiponectin (ligand)
[1]
  EC50 of adiponectin for repression of FET3-lacZ: 2.4 pM
  log EC50 pM of adiponectin for repression of FET3-lacZ: 0.38 log EC50 pM
[2]
  EC50 of adiponectin for repression of FET3-lacZ: 0.7 pM
  log EC50 pM of adiponectin for repression of FET3-lacZ: -0.13 log EC50 pM
